In article doi:10.1101/666776:

Tested on: Cascade/I-C (Cas5, Cas8c, Cas7 with crRNA) (Bacillus halodurans C-125)
Assay: EMSA?

“TACTTCCAATCCAATGCAGGTACCATCGAAAGTAACTCCATCCATAACTAAGCAACCTGTACTAGTAATCGAAAGCTTTTATCCACTTCCAATGTTATTA (double strand) [100 bp target, TTC PAM]” showed a Kd of 148 nM.
